In the supplement of paper PMC10126150:
± gives the standard deviation of the averaged measurements.

System: ATP
Assay: switch fluorescence ratio, 500 uM ATP over buffer (Cy3 cluster intensity, sum of 5 cycles each) (fold (ratio)); higher = stronger signal-on switching upon ATP binding; sequences stand for … in TCGTCGGCAGCGTCAGATGTGTATAAGAGACAGTTTTTTTTTTTTTTTTTTTTTTTTT…TC
Settings: aptamer strand: ATP DNA aptamer (quencher-CACCTGGGGGAGTATTGCGGAGGAAGG + anchor), 100 nM annealed; ATP concentration: 500 uM
How it was run: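 Exposure to 500 uM ATP lasted 15 min at 22 °C before imaging, and a selection-buffer image was taken beforehand, for Cy3-labelled switching-strand clusters on a modified Illumina MiSeq flow-cell annealed to 100 nM quencher-labelled ATP aptamer. Five buffer/ATP cycles were run with NaOH stripping and re-annealing between them. The fluorescence ratio per cluster is summed target-cycle over summed buffer-cycle Cy3 intensity, averaged per switch-domain sequence. Clusters outside 100-1000 RFU were excluded.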

Sequence	switch fluorescence ratio
TTTGTATTGC	1.01 ± 0.025
TTTGTATTGT	1.019 ± 0.0089
TTTGTATTTA	1.03 ± 0.041
TTTGTCAGGC	1.02 ± 0.053
TTTGTCATCG	1.03 ± 0.018
TTTGTCCATG	0.996 ± 0.055
TTTGTCCCTT	1.01 ± 0.041
TTTGTCCTTA	0.9932 ± 0.0017
TTTGTGAGAA	1.02 ± 0.0045
TTTGTGAGGG	0.982 ± 0.028
TTTGTGAGTT	1.017 ± 0.0042
TTTGTGATGT	1.02 ± 0.066
TTTGTGATTT	1.11 ± 0.27
TTTGTGCTC	1.13 ± 0.15
TTTGTGGCAG	0.991 ± 0.039
TTTGTGGCGT	0.984 ± 0.023
TTTGTGGCTT	1.38 ± 0.65
TTTGTGTAAT	0.989 ± 0.038
TTTGTGTCAA	1.01 ± 0.04
TTTGTGTGTC	1 ± 0.025
TTTGTGTTCA	0.98763 ± 0.00075
TTTGTTACGT	1.04 ± 0.024
TTTGTTAGAC	1.03 ± 0.022
TTTGTTATGG	1.02 ± 0.063
TTTGTTATGT	0.988 ± 0.019
TTTGTTATTG	1.3 ± 0.44

Sequence	switch fluorescence ratio
TTTGTTCCAG	1.01 ± 0.06
TTTGTTCTTT	1.02 ± 0.081
TTTGTTGCTG	1.03 ± 0.039
TTTGTTGTAG	0.985 ± 0.028
TTTGTTGTCT	0.995 ± 0.011
TTTGTTTCTT	0.977 ± 0.032
TTTGTTTGAA	0.962 ± 0.023
TTTGTTTGAG	0.991 ± 0.037
TTTGTTTGGC	0.983 ± 0.019
TTTGTTTGTG	1 ± 0.014
TTTTAAAATT	1 ± 0.035
TTTTAAACAT	1.11 ± 0.09
TTTTAAAGA	0.982 ± 0.026
TTTTAAAGTA	1.01 ± 0.031
TTTTAAAGTG	0.993 ± 0.034
TTTTAAAGTT	0.968 ± 0.018
TTTTAAATCT	1.03 ± 0.019
TTTTAAATTT	1.01 ± 0.11
TTTTAACGAA	1.01 ± 0.013
TTTTAACGGC	0.971 ± 0.082
TTTTAAGAAG	1.02 ± 0.018
TTTTAAGACG	0.979 ± 0.069
TTTTAAGGCT	0.982 ± 0.024
TTTTAAGGTG	1.39 ± 0.055
TTTTAATACT	1.04 ± 0.066
TTTTAATAGC	1 ± 0.028

Sequence	switch fluorescence ratio
TTTTAATGCG	1.04 ± 0.012
TTTTAATGGA	1.03 ± 0.029
TTTTAATGGG	0.999 ± 0.02
TTTTAATGTC	0.984 ± 0.027
TTTTAATTGA	1.02 ± 0.031
TTTTAATTGT	1.08 ± 0.083
TTTTACACTT	1.04 ± 0.017
TTTTACGCT	1.03 ± 0.06
TTTTACGCTG	1 ± 0.036
TTTTACGGGT	1.02 ± 0.087
TTTTACTAAA	1.06 ± 0.036
TTTTAGACAG	1.01 ± 0.017
TTTTAGACGT	0.991 ± 0.022
TTTTAGAGAT	1.02 ± 0.038
TTTTAGATTG	0.987 ± 0.028
TTTTAGGACA	0.99977 ± 0.00081
TTTTAGGTAA	0.9745 ± 0.0034
TTTTAGGTGA	1.07 ± 0.025
TTTTAGGTGG	0.98 ± 0.067
TTTTAGTAGC	1.04 ± 0.0058
TTTTAGTATT	0.9973 ± 0.0091
TTTTAGTTT	0.996 ± 0.023
TTTTATAAAA	1.03 ± 0.019
TTTTATACTT	1 ± 0.011
TTTTATAGTG	0.984 ± 0.033
TTTTATATAT	1.014 ± 0.0079

Sequence	switch fluorescence ratio
TTTTATCCA	1.016 ± 0.0095
TTTTATCCCC	1.08 ± 0.1
TTTTATGGCA	1.02 ± 0.021
TTTTATGTGG	1.01 ± 0.04
TTTTATGTT	0.978 ± 0.018
TTTTCAAAGC	1.67 ± 0.84
TTTTCAAGTT	1.21 ± 0.38
TTTTCAATTG	1.01 ± 0.027
TTTTCACGGT	1.01 ± 0.021
TTTTCAGCTG	1.03 ± 0.016
TTTTCAGTTT	1.022 ± 0.01
TTTTCATAAC	1 ± 0.051
TTTTCATTGG	0.985 ± 0.026
TTTTCATTTG	1.01 ± 0.034
TTTTCCAGCC	1.04 ± 0.036
TTTTCCAGGT	1.83 ± 0.42
TTTTCCATTG	1.01 ± 0.021
TTTTCCGACA	2.28 ± 1.5
TTTTCCGCGC	2.08 ± 0.47
TTTTCCGGTT	1.23 ± 0.42
TTTTCCGTTC	1.02 ± 0.021
TTTTCCTCTT	1.02 ± 0.014
TTTTCGAATT	0.991 ± 0.015
TTTTCGAGCT	1.006 ± 0.0095
TTTTCGAGGT	1.17 ± 0.24
TTTTCGCCAC	2.35 ± 1.3

Sequence	switch fluorescence ratio
TTTTCGCTGT	1.02 ± 0.016
TTTTCGGACA	1.033 ± 0.0027
TTTTCGGGCG	0.944 ± 0.017
TTTTCGGTAG	0.989 ± 0.027
TTTTCGGTCG	0.999 ± 0.046
TTTTCGTGGC	0.989 ± 0.1
TTTTCGTTGT	0.996 ± 0.018
TTTTCTACCC	1.03 ± 0.059
TTTTCTAGGT	0.982 ± 0.021
TTTTCTCAGC	1.05 ± 0.029
TTTTCTCTCA	1.01 ± 0.02
TTTTCTGACC	1.02 ± 0.012
TTTTCTGCCT	1.07 ± 0.089
TTTTCTTTGG	1.03 ± 0.077
TTTTGAAATA	0.997 ± 0.017
TTTTGAACGC	1.065 ± 0.0016
TTTTGAAGTC	1.03 ± 0.092
TTTTGAGACT	0.96 ± 0.0084
TTTTGAGAGA	1.11 ± 0.25
TTTTGAGAGG	0.983 ± 0.036
TTTTGAGATT	0.995 ± 0.011
TTTTGAGCGG	1.04 ± 0.015
TTTTGAGTCG	1.01 ± 0.033
TTTTGAGTTC	1.035 ± 0.0057
TTTTGATACG	0.996 ± 0.041
TTTTGATCAT	0.98 ± 0.013

Sequence	switch fluorescence ratio
TTTTGATCGT	0.962 ± 0.023
TTTTGATGAC	1.01 ± 0.047
TTTTGATTAT	0.978 ± 0.034
TTTTGCACCG	1.02 ± 0.053
TTTTGCCAGT	1.11 ± 0.23
TTTTGCCGAT	0.989 ± 0.023
TTTTGCCTTA	1.007 ± 0.0063
TTTTGCGAAT	0.996 ± 0.018
TTTTGCGGCG	1.25 ± 0.29
TTTTGCGGTG	1.01 ± 0.017
TTTTGCGTTT	0.992 ± 0.07
TTTTGCTATT	1.03 ± 0.013
TTTTGGACAT	0.993 ± 0.029
TTTTGGAGAA	1.02 ± 0.037
TTTTGGAGAT	1.01 ± 0.027
TTTTGGAGGA	1.02 ± 0.019
TTTTGGAGTT	0.998 ± 0.035
TTTTGGATCG	1 ± 0.012
TTTTGGATTT	0.993 ± 0.018
TTTTGGCAGG	1.03 ± 0.037
TTTTGGCAGT	1.09 ± 0.013
TTTTGGCCAT	0.995 ± 0.082
TTTTGGCCTA	1.01 ± 0.029
